Results published in US20110300138A1 (published 2011).

Key:
[1] = biological target: TSHR260-alkaline phosphatase (TSHR260-AP) (human) (UniProt P05187); test: TSHR260-AP bridge ELISA, full length TSHR on wells; 0.005 µg/mL, diluted in HBD
[2] = biological target: TSHR260-alkaline phosphatase (TSHR260-AP) (human) (UniProt P05187); test: TSHR260-AP bridge ELISA, full length TSHR on wells; 0.1 µg/mL, diluted in HBD
[3] = biological target: TSHR260-alkaline phosphatase (TSHR260-AP) (human) (UniProt P05187); test: TSHR260-AP bridge ELISA, full length TSHR on wells; 10 µg/mL, diluted in assay buffer
[4] = biological target: TSHR260-alkaline phosphatase (TSHR260-AP) (human) (UniProt P05187); test: TSHR260-AP bridge ELISA, full length TSHR on wells; 250 µg/mL, diluted in assay buffer
[5] = biological target: TSHR260-alkaline phosphatase (TSHR260-AP) (human) (UniProt P05187); test: TSHR260-AP bridge ELISA, full length TSHR on wells; 250 µg/mL, diluted in HBD
[6] = biological target: TSHR260-alkaline phosphatase (TSHR260-AP) (human) (UniProt P05187); test: TSHR260-AP bridge ELISA, full length TSHR on wells; 10 µg/mL, diluted in HBD
[7] = biological target: TSHR260-alkaline phosphatase (TSHR260-AP) (human) (UniProt P05187); test: TSHR260-AP bridge ELISA, full length TSHR on wells; 0.005 µg/mL, diluted in assay buffer
[8] = biological target: TSHR260-alkaline phosphatase (TSHR260-AP) (human) (UniProt P05187); test: TSHR260-AP bridge ELISA, full length TSHR on wells; 0.1 µg/mL, diluted in assay buffer

5C9 Fab
Mean absorbance at 405 nm (absorbance at 405 nm) [1]: -0.012
Mean absorbance at 405 nm (absorbance at 405 nm) [2]: -0.009
Mean absorbance at 405 nm (absorbance at 405 nm) [3]: 0.016
Mean absorbance at 405 nm (absorbance at 405 nm) [4]: 0.204
Mean absorbance at 405 nm (absorbance at 405 nm) [5]: -0.008
Mean absorbance at 405 nm (absorbance at 405 nm) [6]: -0.008
Mean absorbance at 405 nm (absorbance at 405 nm) [7]: 0
Mean absorbance at 405 nm (absorbance at 405 nm) [8]: -0.009
